No end group written: not given here.
Columns and labels:
[1] = molecular target: knob domain of the FAdV-4 Fiber2 protein (Fowl aviadenovirus 4, UniProt A0A1B1SKZ0); experiment: Surface plasmon resonance assay (Biacore X100, CM5 chip); assay type: binding, fowl adenovirus serotype 4 (FAdV-4)
[2] = molecular target: knob domain of the FAdV-4 Fiber2 protein (amino acids 279–479) (fowl adenovirus serotype 4 (FAdV-4)); experiment: crystal structure
[3] = molecular target: knob domain of the FAdV-4 Fiber2 protein (amino acids 279–479) (fowl adenovirus serotype 4 (FAdV-4)); experiment: SDS-PAGE without boiling
[4] = molecular target: knob domain of the FAdV-4 Fiber2 protein (amino acids 279–479) (fowl adenovirus serotype 4 (FAdV-4)); experiment: SEC; Superdex200 Increase 10/300 GL; protein eluted at 14.78 mL
[5] = molecular target: knob domain of the FAdV-4 Fiber2 protein (amino acids 279–479) (fowl adenovirus serotype 4 (FAdV-4)); experiment: AUC
LMH cells = details: 0-200 μM, 24, 48 and 72 h incubation, vs untreated group
[6] = molecular target: knob domain of the FAdV-4 Fiber2 protein (amino acids 279–479) (fowl adenovirus serotype 4 (FAdV-4)); experiment: SPR

Molecule | Kd [1] | Kd [6] | also measured
QWKIEK [Peptide P5, QWKIEK] | 1.2 µM |  | 
QWKNCK [Peptide P10, QWKNCK] | 1.02 µM |  | 
MQKHCG [Peptide P27, MQKHCG] | 0.572 µM |  | 
MQKKFI [Peptide P30, MQKKFI] | 0.907 µM |  | 
QWKIHR [Peptide P6, QWKIHR] | 2.78 µM |  | 
MQKHEW [Peptide P25, MQKHEW] | 1.37 µM |  | 
knob domain of the FAdV-4 Fiber2 protein (amino acids 279–479) (domain or fragment) |  |  | stoichiometry N [2]: 3; stoichiometry N [3]: 3; stoichiometry N [4]: 3; stoichiometry N [5]: 3
QWKARV [Peptide P14, QWKARV] | 24 µM |  | 
WWHEKE [Peptide P15, WWHEKE] |  |  | cytotoxic effect (CCK-8) (LMH cells): no cytotoxic effect
QWKKHI [Peptide P1, QWKKHI] | 6.16 µM |  | 
MQKKFI [peptide P30] |  | 0.907 µM | 
WWHEKE [peptide number 15 (P15; WWHEKE)] |  | 1.44 µM | 
MQKHCG [peptide P27] |  | 0.573 µM | 
QWKNCK [peptide P10] |  | 1.02 µM | 
MQKHEW [peptide P25] |  | 1.37 µM | 
QWKIEK [peptide P5] |  | 1.2 µM | 
QWKARV [peptide P14] |  | 24 µM | 
QWKKHI [peptide P1] |  | 6.16 µM | 
QWKIHR [peptide P6] |  | 2.78 µM | 
